Read-outs that look alike come from different tables or passages of the source.
T1: RIG-I CTD (human, UniProt O95786 792-925)
T1 sequence: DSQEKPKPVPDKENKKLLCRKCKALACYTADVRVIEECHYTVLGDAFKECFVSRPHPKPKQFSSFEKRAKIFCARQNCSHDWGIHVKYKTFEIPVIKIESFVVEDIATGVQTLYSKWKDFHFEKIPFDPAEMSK

T2: RIG-I CTD H847A/K858A (human, UniProt O95786 792-925, H847A;K858A)
T2 sequence: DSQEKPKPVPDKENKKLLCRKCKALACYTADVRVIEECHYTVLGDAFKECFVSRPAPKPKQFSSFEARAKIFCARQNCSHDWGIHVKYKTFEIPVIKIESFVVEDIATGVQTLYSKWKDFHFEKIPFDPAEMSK

T3: RIG-I CTD H847A (human, UniProt O95786 792-925, H847A)
T3 sequence: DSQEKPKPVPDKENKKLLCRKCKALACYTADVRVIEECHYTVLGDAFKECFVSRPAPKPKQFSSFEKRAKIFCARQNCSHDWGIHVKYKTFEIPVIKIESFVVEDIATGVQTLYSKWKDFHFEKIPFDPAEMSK


Legend:
RIG-I CTD [1] = molecular target: T1, RIG-I CTD; assay: ITC
RIG-I CTD H847A/K858A = molecular target: T2, RIG-I CTD H847A/K858A; assay: ITC
RIG-I CTD H847A [2] = molecular target: T3, RIG-I CTD H847A; assay: ITC
RIG-I CTD [3] = molecular target: T1, RIG-I CTD; assay: ITC; remark: listed apart in the source
RIG-I CTD H847A [4] = molecular target: T3, RIG-I CTD H847A; assay: EMSA

Binder	Kd (RIG-I CTD [1]) [nM]	Kd (RIG-I CTD H847A/K858A) [nM]	Kd (RIG-I CTD H847A [2]) [nM]	Kd (RIG-I CTD [3]) [nM]	binding signal (RIG-I CTD H847A [4]) [fold weaker than WT]
5'-ppp-dsRNA 12-mer (dsRNA, 5'-triphosphate on both strands) RNA 1: GACGCUAGCGUC RNA 2: GACGCUAGCGUC	215	649	162	29.2	
5'-ppp-dsRNA 12-mer, 32pCp-labelled (dsRNA, 5'-triphosphate; labelled strand (ppp-11-mer S1 + pCp) carries an additional 3'-phosphate) RNA 1: GACGCUAGCGUC RNA 2: GACGCUAGCGUC					~10

From paper PMC3744876
